Results from PMC3946611, “hCLE/C14orf166 Associates with DDX1-HSPC117-FAM98B in a Novel Transcription-Dependent Shuttling RNA-Transporting Complex” (PLoS ONE, 2014).

Biological target: the molecule itself
Assay: native gel or EMSA; purified hCLE-CBD, dialyzed, non-denaturing gel, Western blot against hCLE

B1: hCLE-TAP tagged protein, purified as hCLE-CBD (natural protein, human, UniProt Q9Y224 1-244, looked up)
chain: MFRRKLTALDYHNPAGFNCKDETEFRNFIVWLEDQKIRHYKIEDRGNLRNIHSSDWPKFFEKYLRDVNCPFKIQDRQEAIDWLLGLAVRLEYGDNAEKYKDLVPDNSKTADNATKNAEPLINLDVNNPDFKAGVMALANLLQIQRHDDYLVMLKAIRILVQERLTQDAVAKANQTKEGLPVALDKHILGFDTGDAVLNEAAQILRLLHIEELRELQTKINEAIVAVQAIIADPKTDHRLGKVGR
notes: hCLE/C14orf166, human; In the cells the protein carries the whole TAP tag (hCLE-TAP); after the TEV step of the purification it is hCLE-CBD; also called hCLE/C14orf166; protein C14orf166 (CLE); source: HEK293T, transfected with pChCLE-TAP; TAP purified (IgG-Sepharose, Calmodulin-Agarose) from total, nuclear or cytosolic extracts
stoichiometry N: 2
